Series [1] in a line: pQC-Fluc PV neutralisation. Conditions: glycan gained; control: Q23 SOS gp160ΔCT parent.
Series [2] can be described thus: SDS-PAGE-Western blot of VLP Env. Conditions: glycan gained; control: Q23 SOS gp160ΔCT parent. For orientation: Immunoblotting shows a protein as a band on a membrane.

From paper PMC8565784 come the findings set out here.

On to Q23 Env: D49N, for which, in series [1], the “other: neutralisation sensitivity” value was “increases”. The expression_or_secretion result in series [2] is recorded as “increases”.

As for Q23 Env: D49N+D674N, the “other: neutralisation sensitivity” value in series [1] is listed as “increases”. The expression_or_secretion entry in series [2] was “no change”.

With Q23 Env: D674N, the “other: neutralisation sensitivity” value in series [1] is “increases”. Further, the expression_or_secretion result in series [2] is on record as “decreases”.
